T1: human GITR with mFc tag (huGITR-mFc) (human)
T1 chain: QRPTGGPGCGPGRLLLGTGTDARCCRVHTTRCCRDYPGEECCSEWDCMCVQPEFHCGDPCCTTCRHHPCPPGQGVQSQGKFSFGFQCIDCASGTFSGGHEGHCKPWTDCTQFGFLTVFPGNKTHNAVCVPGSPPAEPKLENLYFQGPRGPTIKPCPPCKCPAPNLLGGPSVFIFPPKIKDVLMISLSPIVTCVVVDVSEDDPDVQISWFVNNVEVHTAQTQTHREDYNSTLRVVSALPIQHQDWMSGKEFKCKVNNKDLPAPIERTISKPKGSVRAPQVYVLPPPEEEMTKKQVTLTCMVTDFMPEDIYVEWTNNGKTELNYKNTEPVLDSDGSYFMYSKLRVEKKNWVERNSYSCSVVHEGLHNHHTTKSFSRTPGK

T2: mouse GITR (mouse, UniProt O35714 20-153, limits assumed)
T2 sequence (looked up): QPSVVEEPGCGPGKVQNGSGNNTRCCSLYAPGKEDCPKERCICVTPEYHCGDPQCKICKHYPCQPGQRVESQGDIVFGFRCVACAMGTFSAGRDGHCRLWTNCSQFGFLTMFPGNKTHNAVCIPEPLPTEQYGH

T3: human h-GITR-his antigen (Sino Biological, Cat. #13643-H08H) (human, UniProt Q9Y5U5 26-161)
T3 construct: Bought protein; also called GITR antigen; not shown: His tag
T3 sequence (looked up): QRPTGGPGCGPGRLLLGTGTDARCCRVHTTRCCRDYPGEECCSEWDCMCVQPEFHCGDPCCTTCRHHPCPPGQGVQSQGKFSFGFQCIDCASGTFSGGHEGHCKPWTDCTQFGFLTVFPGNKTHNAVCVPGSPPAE

B1: mouse monoclonal antibody 18F10 (antibody, V domains shown)
VH: QVQLQQSGAELVRPGVSVKISCKCSGYTFTGYDLHWVKQSHAKSLDWIGVISTYYGDANYNQKFKGKATMTVDKSSSTAYMELARLTSEDSAIYYCTRLAESYFFDYWGQGTTLTVSS
VL: QILLTQSPAIMSASPGEKVTMTCRASSSVSYIHWYQQKPGSSPKPWIYDTSDLASGFPARFSGTGSGTSYSLIISSMEAEDAATYYCHQRSSYPFTFGSGTKLEIK
notes: Mouse antibody from a hybridoma
B2: mouse monoclonal antibody 8A11 (antibody, V domains shown)
VH: EVKLVESGGGLVKPGGSLKLSCAASGFTFSSYAMSWVRQTPEKRLEWVAYISSGGSTYYPDSVKGRFTISRENARNILYLQMSSLRSEDTAMYYCAREGYGTYGDYWGQGTTLTVSS
VL: DIVMSQSPSSLAVSVGEKVTMSCKSSQSLLYSTNQKNYLAWYQQKPGQSPKLLIYWASTRESGVPDRFTGSGSGTDFTLTISSVKAEDLAVYYCQQYYSYLRTFGGGTKLEIK
notes: as for B1
B3: mouse monoclonal antibody 16G9 (antibody, V domains shown)
VH: QVQLQQSGAELAKPGASVKMSCKASGYTFTTYWIHWIKQRPGQGLEWIGYINPSTGYTDYNQNFKDKATLTADQYSSTAYMQLSSLTFEDSAVYYCANYYGSTPYYWGRGTTLTVSS
VL: QIVLTQSPAIMSASPGEKVTMTCSASSSVTYVHWYQQKSGASPERWIFDASKLASGVPARFSGSGSGTSYSLTISSMETEDAATYYCQQWSSNPLTFGAGTKLELK
notes: as for B1
B4: mouse monoclonal antibody 7D9 (antibody, V domains shown)
VH: DVQLQESGPGLVKPSQSLSLTCTVTGYSITSDYAWNWIRQFPGNKLEWLGYISYSGSTYYNPSLKSRISLTRDTSKNQFFLQLNSVTSEDTATYYCARWDYRYDGRGFDYWGQGTTLTVSS
VL: DIQMTQSPSSLSASLGERVSLTCRASQDIGSGLNWLQQEPDGTIKRLIYATSSLDSGVPKRFSGSRSGSDYSLTISSLESEDFVDYNCLQYTSTPWTFGGGTKLEIK
notes: as for B1
B5: reference antibody BMAB (Merck's MK-4166 antibody) (antibody, V domains shown)
VH: QVQLQQSGAEVKKPGSSVRVSCKASGGTFNNNAINWVRQAPGQGLEWMGGIIPMFGTAKYSQNFQGRVAITADESTGTASMELSSLRSEDTAVYYCARSRDLLLFPHHALSPWGRGTMVTVSS
VL: SSELTQDPAVSVALGQTVRVTCQGDSLRSYYASWYQQKPGQAPVLVIYGKNNRPSGIPDRFSGSSSGNTASLTITGAQAEDEADYYCSSRDSSGNHWVFGGGTELTVLG
B6: humanized anti-GITR antibody hu18F10 (antibody, human IgG1, kappa, V domains shown)
VH: QVQLVQSGAEVVKPGASVKVSCKASGYTFTGYDLHWVRQAPGQGLEWIGVISTYYGDANYNQKFQGRVTMTVDTSSSTAYMELSRLRSEDTAVYYCTRLAESYFFDYWGQGTTLTVSS
VL: EIVLTQSPATLSASPGERVTLTCRASSSVSYLHWYQQKPGQAPKPWIYDTSNLASGFPARFSGDGSGTDYTLTISSLEAEDAAVYYCHQRSSYPFTFGSGTKLEIKR
B7: humanized anti-GITR antibody hu8A11 (antibody, human IgG1, kappa, V domains shown)
VH: EVQLVESGGGLVQPGGSLRLSCAASGFTFSSYAMSWVRQAPGKGLEWVAYISSGGSTYYPDSVKGRFTISRDNAKNSLYLQMNSLRAEDTAVYYCAREGYGTYGDYWGQGTTLTVSS
VL: DIVMTQSPSSLAVSVGERVTISCKSSQSLLYSTNQKNYLAWYQQKPGQSPKLLIYWASTRESGVPDRFSGSGSGTDFTLTISSLQAEDVAVYYCQQYYSYLRTFGGGTKLEIKR
notes: also called h8A11

biological target: cynomolgus GITR (cyno-GITR) (cynomolgus); assay: ELISA, cyno GITR coated at 1 ug/ml
Protocol: (§1) The GITR proteins from different species (mouse/cyno GITR) were diluted to 1 μg/ml with PBS buffer pH 9.5, and 50 μl/well was added to a 96-well microplate, which was incubated overnight (16-18 hours) at 4° C. The buffer in the plate was discarded prior to adding 300 μl/well of 1% BSA blocking buffer diluted with PBS, and the plate was incubated for blocking for 2.5h at 37° C. in an incubator. After blocking, the blocking buffer was discarded, and the plate was washed three times with PBST buffer (pH 7.4 PBS containing 0.05% tween-20). 50 μl/well antibodies to be tested were added to the plate, wherein the antibodies were diluted to different concentrations with sample diluent (pH7.4 PBS), and the plate was incubated at 37° C. in an incubator for 30 minutes. After incubation, the reaction buffer in the microplate was discarded prior to washing the plate with PBST three times, and 50 μL/well of Peroxidase AffiniPure Goat Anti-Human secondary antibody (JacksonImmunoResearch, 109-035-088) which was diluted with sample diluent was added, and the plate was incubated at 37° C. for 1 hour. […] The absorption value at 450 nm was read by a MD plus 384 microplate reader.

EC50 [nM] | Binder
0.744 | B1
5.21 | B2

Biological target: T1, human GITR with mFc tag (huGITR-mFc)
Assay: ELISA, huGITR-mFc coated at 1 ug/ml
Protocol: The huGITR-mFc was diluted to 1 μg/ml with CBS buffer pH 9.5, added to the 96-well microplate at 50 μl/well, and incubated overnight at 4° C. The supernatant was discarded prior to 300 μl/well of 1% BSA blocking buffer diluted with PBS to the wells, and the plate was incubated for 2.5h at 37° C. in an incubator for blocking. After blocking, the blocking buffer was discarded, and the plate was washed three times with PBST buffer (pH 7.4 PBS containing 0.05% tween-20). 50 μl/well of the antibodies to be tested were added, with the antibodies being diluted to different concentrations with sample diluent, and the plate was incubated at 37° C. in an incubator for 30 minutes. The plate was then washed with PBST three times, and 50 μL/well of Peroxidase AffiniPure Goat Anti-Human secondary antibody (Jackson immune research, 115-035-088) diluted with sample diluent was added, followed by incubating at 37° C. for 30 minutes. After washing the plate with PBST three times, 50 μl/well of TMB chromogenic substrate was added and the plate was incubated at room temperature for 5 minutes prior to adding 50 μl/well of 1M […] to terminate the reaction. The absorption value at 450 nm was read by a MD plus 384 microplate reader. The data were analyzed with SoftMax Pro6.2.1 to obtain binding EC50 values of the anti-GITR antibodies to GITR, as shown in Table 1.

EC50 [nM] | Binder
0.075 | B3
0.103 | B1
0.077 | B2
0.055 | B4
0.074 | B5

biological target: T2, mouse GITR; assay: ELISA, mouse GITR coated at 1 ug/ml
Protocol: as §1

binding result | Binder
no binding | B1
no binding | B2

Biological target: T1, human GITR with mFc tag (huGITR-mFc)
Assay: ELISA, blocking of GITRL-His binding to coated GITR-Fc
Protocol: huGITR-mFc was diluted to 2 μg/ml with CBS buffer pH 9.5, added to the 96-well microplate at a volume of 50 μl/well, and incubated overnight at 4° C. The supernatant was discarded prior to adding 300 μl/well of 1% BSA blocking buffer diluted with PBS, and the plate was incubated for blocking for 2.5h at 37° C. in an incubator. After blocking, the blocking buffer was discarded, and the plate was washed three times with PBST buffer (pH 7.4 PBS containing 0.05% tween-20) prior to adding antibodies for pre-incubation, wherein the antibodies were diluted into gradient concentrations with sample diluent. 0.15 μg/ml of GITRL-His protein in a volume of 50 μl/well was added, mixed and incubated at 37° C. in an incubator for 30 minutes. The reaction buffer was then discarded, the plate was washed with PBST three times, and 50 μL/well of Peroxidase AffiniPure Goat Anti-Human secondary antibody diluted with sample diluent at a ratio of 1:4000 was added, then the place was incubated at 37° C. for 30 minutes. After washing the plate with PBST three times, 50 μl/well of TMB chromogenic substrate was added and the plate was incubated at room temperature for 5 minutes prior to adding 50 μl of 2M H₂SO₄ to terminate the reaction. The absorption value at 450 nm was read by a MD plus 384 microplate reader. The EC50 values of GITR antibodies binding to GITR were obtained by analyzing the data with SoftMax Pro6.2.1, as shown in Table 1.

IC50 [nM] | Binder
10.3 | B3
6.04 | B1
7.57 | B2
3.89 | B4
1.39 | B5

biological target: T3, human h-GITR-his antigen (Sino …); assay: SPR (Biacore T200), antibody captured on Protein A chip, h-GITR-his as analyte, 1:1 Langmuir fit
Protocol: The affinities of humanized anti-GITR antibodies to be tested and human GITR were measured by Biacore, GE instruments.
A Protein A biosensor chip (Cat. 29-1275-56, GE) for a Biacore Instrument (Biacore T200, GE) was used to affinity-capture a certain amount of antibodies to be tested, and then a series of concentration gradients of GITR antigen (human h-GITR-his antigen was selected from Sino Biological Company (Cat. #13643-H08H)) were flowed through the surface of the chip. Real-time reaction signals were detected by a Biacore Instrument (Biacore T200, GE), thus obtaining the binding and dissociation curves. The biochip was rinsed and regenerated with 10 mM glycine pH 1.5 after each dissociation cycle, and the buffer was PBST, pH7.4. The experimental data were fitted with (1:1) Langmuir model using Biacore T200 Evaluation 2.0, GE software, and the affinity values were obtained, as shown in Table 2.

Kd [nM] | koff [s⁻¹] | kon [M⁻¹ s⁻¹] | Binder
0.33 | 0.000204 | 613000 | B6
0.185 |  |  | B5
0.62 | 0.000104 | 168000 | B7
